Numbered stars: 1 amine (or outer) side, 2 acyl side, 3 side chain; on linkers, the order of the positions; unused ones are H or OH. Bridge positions count the residues as written; N and C are the ends. Square brackets hold non-standard residues; d marks the D form. Ends that are not written are not given here. KCOpipzaa = N6-(4-(carboxymethyl)piperazine-1-carbonyl)-L-lysine, O=C(NCCCC[C@H](N[*:1])C(=O)[*:2])N1CCN(CC(=O)[*:3])CC1; F3aa = (S)-2-amino-3-[3-(carboxymethyl)phenyl]propanoic acid, O=C([C@H](Cc1cccc(CC(=O)[*:3])c1)N[*:1])[*:2]; Phe(4-COOH) = N[C@@H](Cc1ccc(C(=O)O)cc1)C(=O)O; Bip = N[C@@H](Cc1ccc(-c2ccccc2)cc1)C(=O)O; Phe(4-F) = N[C@@H](Cc1ccc(F)cc1)C(=O)O; Ala(4-THP) = N[C@@H](CC1CCOCC1)C(=O)O; cisHyp = O=C(O)[C@@H]1C[C@H](O)CN1; hCit = NC(=O)NCCCC[C@H](N)C(=O)O; 4Pal = N[C@@H](Cc1ccncc1)C(=O)O; βAla = NCCC(=O)O
Molecular target: T1, BMP4 (Homo sapiens, UniProt P12644)
T1 sequence (P12644 293-408): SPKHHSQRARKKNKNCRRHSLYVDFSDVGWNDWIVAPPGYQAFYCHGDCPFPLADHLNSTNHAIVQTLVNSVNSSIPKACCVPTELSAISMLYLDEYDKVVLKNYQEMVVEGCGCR
Experiment: BMP4 signal transduction inhibitory activity: SMAD1 phosphorylation by BMP4 stimulus, AlphaLISA SureFire, A549 cells
Assay type: cell-based
Details: class of inhibition of SMAD1 phosphorylation by BMP4 stimulus, AlphaLISA, A549 cells
Method: In the present Example, a BMP4 signal transduction inhibitory activity of each peptide consisting of an amino acid sequence set forth in any of SEQ ID NOs: 5 to 240 and 243 to 421 synthesized in Example 10 was verified by phosphorylation of SMAD1 caused by BMP4 stimulus. A549 cells were cultured in MEM (Thermo Fisher Scientific) containing 10% FBS (Thermo Fisher Scientific), 1×Non-essential amino acids (Thermo Fisher Scientific), and 50 μg/mL Gentamicin. After TrypLE (Gibco) was used to peel the cells, seeding was performed in a 96-well plate for adhesion cells so that the number of cells would be 20,000 per well, followed by culturing for 48 hours. After the cells were cultured as described above, the culture medium was replaced with a peptide solution or recombinant Human Noggin Protein (R&D) solution as a positive control diluted to various concentrations in a nutrition-starved culture medium containing 0.1% BSA (Sigma) instead of FBS Thirty minutes after culturing, […], to stimulate it for 60 minutes. The culture medium was removed and the cells were lysed with Lysis Buffer provided with AlphaLISA (registered trademark) SureFire (registered trademark) Ultra SMAD1 (p-[…]/465) Assay kit (PerkinElmer). According to the protocol of the kit, a signal was detected using SpectraMax (registered trademark) Paradigm (registered trademark) multimode microplate reader (Molecular Devices). The obtained signal was analysed using GraphPad Prism (GraphPad Software). The % inhibition was calculated by considering non-stimulation as 100% inhibition and BMP stimulation only as 0% inhibition. Regarding SEQ ID NOs: 5 to 187, the concentrations of the peptides synthesized in the same manner as in Example 2 (shown as 2 in the row of Synthesis) were 0.02 nM, 0.2 nM, and 2 nM, and the concentrations of the peptides synthesized in the same manner as in Example 1 (shown as 1 in the row of Synthesis) were 0.2 nM, 2 nM, and 20 nM. The evaluation results were based on the results of evaluation using the peptides synthesized in the same manner as in Example 2. […] Regarding SEQ ID NOs: 243 to 321, the test was performed at the concentrations described in Table 6. […] Regarding SEQ ID NOs: 322 to 421, the test was performed at the concentrations described in Table 7. […] The evaluation tests of the signal transduction inhibitory activities of SEQ ID NOs: 87, 177, and 181 are as follows. Specifically, the inhibitory activity of BMP4 was evaluated in the same manner as in Example 11 that used A549 cells. Eight concentrations of the peptides were used at a common ratio of 1/3 starting from 2 nM. The inhibitory activity of BMP7 was evaluated in the same manner as in Example 12. Eight concentrations of the peptides were used at a common ratio of 1/3 starting from 100 nM. Note that recombinant Human Noggin Protein (R&D) as a positive control was used at the same concentration as that of the peptide. […] The inhibitory activity of BMP7 was evaluated using eight concentrations of the peptides at a common ratio of 1/3 starting from 1,000 nM in the same manner as in Example 12.

Substance	aLISA BMP4
163 ({CH2CO}-ERVYVDR[Bip]SYY[Bip]Y[Phe(4-COOH)][Phe(4-COOH)]SC[βAla][dE]-OH; thioether N-17; not fully specified) [compound 163]	A (showed an inhibitory activity of 50% or more in a zone to which the peptide was added to in an amount of 0.2 nM)
164 ({CH2CO}-ERVYVDR[Bip]SYV[Bip]Y[Phe(4-COOH)][Phe(4-COOH)]HC[βAla][dE]-OH; thioether N-17; not fully specified) [compound 164]	A (showed an inhibitory activity of 50% or more in a zone to which the peptide was added to in an amount of 0.2 nM)
169 ({CH2CO}-E[hCit]VY[Ala(4-THP)]DR[Bip]SYV[Bip]Y[Phe(4-COOH)][Phe(4-COOH)]HC[βAla][dE]-OH; thioether N-17; not fully specified) [compound 169]	C (showed an inhibitory activity of less than 50% in 0.2 nM-addition zone and showed an inhibitory activity of 50% or more in 2 nM-addition zone were defined as B or C)
178 ({CH2CO}-ERV[Phe(4-COOH)][Ala(4-THP)]DR[Bip]PYV[Bip]Y[Phe(4-COOH)][Phe(4-COOH)]SC[βAla][dE]-OH; thioether N-17; not fully specified) [compound 178]	A (showed an inhibitory activity of 50% or more in a zone to which the peptide was added to in an amount of 0.2 nM)
179 ({CH2CO}-ERV[Phe(4-COOH)][Ala(4-THP)][KCOpipzaa]R[Bip]PY[F3aa][Bip]Y[Phe(4-COOH)][Phe(4-COOH)]SC[βAla][dE]-OH; thioether N-17; not fully specified) [compound 179]	C (showed an inhibitory activity of less than 50% in 0.2 nM-addition zone and showed an inhibitory activity of 50% or more in 2 nM-addition zone were defined as B or C)
180 ({CH2CO}-ERV[Phe(4-COOH)][Ala(4-THP)][KCOpipzaa]R[Bip]PY[cisHyp][Bip]Y[Phe(4-COOH)][Phe(4-COOH)]SC[βAla][dE]-OH; thioether N-17; not fully specified) [compound 180]	A (showed an inhibitory activity of 50% or more in a zone to which the peptide was added to in an amount of 0.2 nM)
182 ({CH2CO}-ERVY[Ala(4-THP)][KCOpipzaa]R[Bip]PY[F3aa][Bip]Y[Phe(4-COOH)][Phe(4-COOH)]SC[βAla][dE]-OH; thioether N-17; not fully specified) [compound 182]	A (showed an inhibitory activity of 50% or more in a zone to which the peptide was added to in an amount of 0.2 nM)
183 ({CH2CO}-ERVY[Ala(4-THP)][KCOpipzaa]R[Bip]PY[cisHyp][Bip]Y[Phe(4-COOH)][Phe(4-COOH)]SC[βAla][dE]-OH; thioether N-17; not fully specified) [compound 183]	A (showed an inhibitory activity of 50% or more in a zone to which the peptide was added to in an amount of 0.2 nM)
184 ({CH2CO}-ERVY[Ala(4-THP)][KCOpipzaa]R[Bip]PYP[Bip]Y[Phe(4-COOH)][Phe(4-COOH)]SC[βAla][dE]; thioether N-17) [compound 184]	A (showed an inhibitory activity of 50% or more in a zone to which the peptide was added to in an amount of 0.2 nM)
185 ({CH2CO}-E[KCOpipzaa]V[Phe(4-COOH)][Ala(4-THP)]DR[Bip]PY[F3aa][Bip][Phe(4-F)][Phe(4-COOH)][4Pal]SC[βAla][dE]; thioether N-17) [compound 185]	C (showed an inhibitory activity of less than 50% in 0.2 nM-addition zone and showed an inhibitory activity of 50% or more in 2 nM-addition zone were defined as B or C)
186 ({CH2CO}-E[KCOpipzaa]V[Phe(4-COOH)][Ala(4-THP)]DR[Bip]PY[cisHyp][Bip][Phe(4-F)][Phe(4-COOH)][4Pal]SC[βAla][dE]; thioether N-17) [compound 186]	A (showed an inhibitory activity of 50% or more in a zone to which the peptide was added to in an amount of 0.2 nM)

Reference: patent US20250361274A1, “PEPTIDE AND PEPTIDE-CONTAINING AGENT” (PEPTIDREAM INC., priority 2022, published 2025)
